Laboratory results from the Human Domainome abundance scans (Beltran et al. 2025).
± gives the uncertainty stated by the source.

B1: Far upstream element-binding protein 3, residues 75 to 150; numbered along this chain, Q96I24 (parent)
chain: RTVITEEFKVPDKMVGFIIGRGGEQISRIQAESGCKIQIASESSGIPERPCVLTGTPESIEQAKRLLGQIVDRCRN

Variants of: B1
Experiment: abundance fitness (aPCA) (normalised: wild type 0, dead -1); higher = more abundant; growth selection in yeast, the domain comes from the species named
Conditions: Homo sapiens

Row | Variant | abundance fitness
1 | I46M | -0.053 ± 0.04
2 | I46P | 0.016 ± 0.046
3 | I46Q | -0.007 ± 0.042
4 | I46R | -0.046 ± 0.027
5 | I46K | -0.003 ± 0.043
6 | I46W | -0.093 ± 0.033
7 | I46S | -0.018 ± 0.035
8 | I46N | 0.031 ± 0.056
9 | I46V | -0.007 ± 0.029
10 | I46T | 0.032 ± 0.043
11 | I46L | 0.018 ± 0.031
12 | P50I | 0.004 ± 0.05
13 | P50N | 0.01 ± 0.052
14 | P50E | -0.01 ± 0.031
15 | P50Y | -0.113 ± 0.048
16 | P50C | -0.054 ± 0.047
17 | P50S | -0.046 ± 0.031
18 | P50H | -0.04 ± 0.05
19 | P50A | -0.042 ± 0.031
20 | P50F | -0.119 ± 0.052
21 | P50T | -0.053 ± 0.035
22 | P50D | -0.079 ± 0.045
23 | P50M | -0.04 ± 0.038
24 | P50V | -0.031 ± 0.03

Row | Variant | abundance fitness
25 | P50L | -0.043 ± 0.03
26 | P50R | -0.06 ± 0.026
27 | P50K | -0.029 ± 0.036
28 | P50G | -0.014 ± 0.026
29 | T56C | -0.097 ± 0.04
30 | T56E | -0.08 ± 0.032
31 | T56A | -0.086 ± 0.032
32 | T56G | -0.232 ± 0.025
33 | T54E | -0.071 ± 0.05
34 | T54Y | -0.102 ± 0.071
35 | T54R | -0.018 ± 0.034
36 | T54W | -0.269 ± 0.051
37 | T54N | -0.1 ± 0.075
38 | T54S | -0.078 ± 0.045
39 | T54K | -0.033 ± 0.051
40 | T54D | -0.187 ± 0.077
41 | T54A | -0.11 ± 0.046
42 | T54I | -0.065 ± 0.12
43 | T54G | -0.512 ± 0.041
44 | T54H | -0.01 ± 0.079
45 | T54F | -0.378 ± 0.23
46 | T54M | -0.077 ± 0.05
47 | T54V | -0.044 ± 0.041
48 | T54C | -0.187 ± 0.066

Row | Variant | abundance fitness
49 | T54L | -0.129 ± 0.048
50 | T54P | -1.15 ± 0.12
51 | E48W | -0.055 ± 0.032
52 | E48F | -0.09 ± 0.046
53 | E48Y | -0.056 ± 0.057
54 | E48V | -0.127 ± 0.029
55 | E48L | -0.068 ± 0.031
56 | E48T | -0.109 ± 0.036
57 | E48D | 0.001 ± 0.045
58 | E48M | -0.048 ± 0.038
59 | E48P | -0.242 ± 0.042
60 | E48N | -0.1 ± 0.06
61 | E48R | -0.153 ± 0.029
62 | E48A | -0.137 ± 0.031
63 | E48I | -0.162 ± 0.054
64 | E48C | -0.158 ± 0.041
65 | E48S | -0.043 ± 0.033
66 | E48Q | -0.108 ± 0.04
67 | C51N | -0.634 ± 0.091
68 | C51G | -0.206 ± 0.028
69 | C51W | -0.147 ± 0.034
70 | C51Q | -0.688 ± 0.066
71 | C51A | -0.075 ± 0.036
72 | C51D | -0.633 ± 0.067

Row | Variant | abundance fitness
73 | C51M | -0.068 ± 0.043
74 | C51F | -0.009 ± 0.061
75 | C51L | -0.062 ± 0.035
76 | C51P | -0.671 ± 0.066
77 | C51H | -0.475 ± 0.092
78 | C51V | -0.009 ± 0.033
79 | C51S | -0.366 ± 0.04
80 | C51E | -0.924 ± 0.06
81 | C51T | -0.108 ± 0.043
82 | C51Y | -0.311 ± 0.065
83 | C51R | -0.926 ± 0.042
84 | P47I | -0.021 ± 0.051
85 | P47G | -0.058 ± 0.025
86 | P47R | -0.065 ± 0.025
87 | P47K | -0.023 ± 0.039
88 | P47T | -0.063 ± 0.036
89 | P47E | -0.037 ± 0.034
90 | P47A | -0.03 ± 0.03
91 | P47F | -0.096 ± 0.044
92 | P47M | -0.072 ± 0.038
93 | P47C | -0.027 ± 0.041
94 | P47Q | -0.068 ± 0.039
95 | P47S | 0.024 ± 0.034
96 | P47V | -0.041 ± 0.03

Row | Variant | abundance fitness
97 | P47L | -0.043 ± 0.03
98 | P47W | -0.084 ± 0.032
99 | P47N | -0.077 ± 0.054
100 | P47Y | -0.12 ± 0.058
101 | P47H | -0.028 ± 0.05
102 | L53E | -1.05 ± 0.073
103 | L53Q | -1.13 ± 0.12
104 | L53A | -0.473 ± 0.045
105 | L53C | -0.191 ± 0.062
106 | L53R | -1.25 ± 0.066
107 | L53H | -1.09 ± 0.35
108 | L53M | -0.134 ± 0.045
109 | L53F | -0.354 ± 0.084
110 | L53I | -0.016 ± 0.077
111 | L53G | -0.971 ± 0.044
112 | L53V | -0.227 ± 0.033
113 | L53S | -0.838 ± 0.065
114 | L53W | -1.42 ± 0.13
115 | L53D | -0.96 ± 0.13
116 | L53K | -1.12 ± 0.1
117 | L53P | -1.32 ± 0.17
118 | L53T | -0.94 ± 0.077
119 | V52E | -0.073 ± 0.037
120 | V52H | -0.064 ± 0.061

Row | Variant | abundance fitness
121 | V52S | -0.005 ± 0.036
122 | V52T | -0.044 ± 0.038
123 | V52N | -0.133 ± 0.056
124 | V52Y | -0.115 ± 0.056
125 | V52P | -0.931 ± 0.069
126 | V52I | -0.034 ± 0.057
127 | V52D | -0.16 ± 0.049
128 | V52L | -0.023 ± 0.033
129 | V52Q | 0.043 ± 0.043
130 | V52M | -0.039 ± 0.046
131 | V52F | -0.107 ± 0.061
132 | V52A | -0.029 ± 0.033
133 | V52R | -0.072 ± 0.029
134 | V52C | -0.093 ± 0.051
135 | G55F | -1.17 ± 0.16
136 | G55H | -1.22 ± 0.14
137 | G55K | -0.972 ± 0.063
138 | G55S | -0.827 ± 0.045
139 | G55N | -0.989 ± 0.1
140 | G55A | -0.855 ± 0.04
141 | G55V | -1.38 ± 0.066
142 | G55D | -0.905 ± 0.077
143 | G55T | -1.09 ± 0.078
144 | G55W | -1.34 ± 0.076

Row | Variant | abundance fitness
145 | G55M | -1.24 ± 0.1
146 | G55R | -1.07 ± 0.041
147 | G55L | -1.39 ± 0.085
148 | G55Q | -1.18 ± 0.083
149 | G55Y | -1.28 ± 0.17
150 | G55I | -1.12 ± 0.2
151 | R49K | -0.099 ± 0.047
152 | R49P | -0.182 ± 0.048
153 | R49C | -0.091 ± 0.049
154 | R49E | -0.159 ± 0.037
155 | R49D | -0.251 ± 0.056
156 | R49V | -0.052 ± 0.03
157 | R49N | -0.155 ± 0.059
158 | R49L | -0.19 ± 0.032
159 | R49F | -0.195 ± 0.058
160 | R49T | -0.044 ± 0.046
161 | R49S | -0.141 ± 0.036
162 | R49G | -0.129 ± 0.026
163 | R49I | -0.141 ± 0.07
164 | R49W | -0.271 ± 0.034
165 | R49Q | -0.081 ± 0.041
166 | R49A | -0.173 ± 0.037
167 | R49M | -0.169 ± 0.039
